Key:
WbbBGT99 = biological target: T1, WbbBGT99 (Klebsiella terrigena, UniProt Q6U8B0); assay: native MS and pepsin MS/MS after NaBH4 reduction of the enzyme-Kdo adduct; type: biochemical; conditions: covalent; Kdo transferred to Asp232; donor generated in situ from CTP, Kdo and KdsB; Mg; 5 min then NaBH4, room temperature
T1 construct: gene wbbB; WbbBGT99-His6 in pET28a, expressed in E. coli BL21(DE3) or ClearColi BL21(DE3); dimer in native MS

[1] = biological target: the molecule itself; assay: native MS; nanoESI, positive mode, UHMR Orbitrap; aqueous ammonium acetate 200 mM, pH 7, 25 °C; +21 charge state of the dimer; before or after reaction with the CMP-Kdo reaction mix

T1 sequence (Q6U8B0 entry or part of it): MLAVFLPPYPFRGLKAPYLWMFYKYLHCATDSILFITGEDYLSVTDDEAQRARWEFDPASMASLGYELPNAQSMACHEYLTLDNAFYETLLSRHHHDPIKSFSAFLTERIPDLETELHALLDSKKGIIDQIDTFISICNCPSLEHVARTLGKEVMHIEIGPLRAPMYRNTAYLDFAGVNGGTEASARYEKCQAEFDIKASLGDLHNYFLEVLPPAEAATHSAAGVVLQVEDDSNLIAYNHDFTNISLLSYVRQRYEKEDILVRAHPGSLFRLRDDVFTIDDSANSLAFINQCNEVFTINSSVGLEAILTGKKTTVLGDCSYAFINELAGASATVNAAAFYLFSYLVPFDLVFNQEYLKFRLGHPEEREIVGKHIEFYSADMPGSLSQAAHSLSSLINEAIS

Molecule | native MS and pepsin MS/MS after NaBH4 reduction of the enzyme-Kdo adduct (WbbBGT99) | stoichiometry N [1]
Nc1ccn([C@@H]2O[C@H](COP(=O)(O)O[C@@]3(C(=O)O)C[C@@H](O)[C@@H](O)[C@@H]([C@H](O)CO)O3)[C@@H](O)[C@H]2O)c(=O)n1 [CMP-β-Kdo] | Asp232 is the sole residue that has been converted to homoserine | –
WbbB_(GT99)-E158Q (domain or fragment, source: ClearColi BL21 (DE3) E. coli, purified (IMAC, desalting)) LAVFLPPYPFRGLKAPYLWMFYKYLHCATDSILFITGEDYLSVTDDEAQRARWEFDPASMASLGYELPNAQSMACHEYLTLDNAFYETLLSRHHHDPIKSFSAFLTERIPDLETELHALLDSKKGIIDQIDTFISICNCPSLEHVARTLGKEVMHIQIGPLRAPMYRNTAYLDFAGVNGGTEASARYEKCQAEFDIKASLGDLHNYFLEVLPPAEAATHSAAGVVLQVEDDSNLIAYNHDFTNISLLSYVRQRYEKEDILVRAHPGSLFRLRDDVFTIDDSANSLAFINQCNEVFTINSSVGLEAILTGKKTTVLGDCSYAFINELAGASATVNAAAFYLFSYLVPFDLVFNQEYLKFRLGHPEEREIVGKHIEFYSADMPGSLSQAAHSLSSLINEAIS | – | 2
WbbB_(GT99)-D232C (domain or fragment, source: ClearColi BL21 (DE3) E. coli, purified (IMAC, desalting), then reacted with the CMP-β-Kdo reaction mix) LAVFLPPYPFRGLKAPYLWMFYKYLHCATDSILFITGEDYLSVTDDEAQRARWEFDPASMASLGYELPNAQSMACHEYLTLDNAFYETLLSRHHHDPIKSFSAFLTERIPDLETELHALLDSKKGIIDQIDTFISICNCPSLEHVARTLGKEVMHIEIGPLRAPMYRNTAYLDFAGVNGGTEASARYEKCQAEFDIKASLGDLHNYFLEVLPPAEAATHSAAGVVLQVEDCSNLIAYNHDFTNISLLSYVRQRYEKEDILVRAHPGSLFRLRDDVFTIDDSANSLAFINQCNEVFTINSSVGLEAILTGKKTTVLGDCSYAFINELAGASATVNAAAFYLFSYLVPFDLVFNQEYLKFRLGHPEEREIVGKHIEFYSADMPGSLSQAAHSLSSLINEAIS | – | 2
WbbB_(GT99)-D232N (domain or fragment, Kdo modified in ~8% after the CMP-β-Kdo reaction mix; N-terminal methionine removed with variable efficiency, source: ClearColi BL21 (DE3) E. coli, purified (IMAC, desalting), then reacted with the CMP-β-Kdo reaction mix) LAVFLPPYPFRGLKAPYLWMFYKYLHCATDSILFITGEDYLSVTDDEAQRARWEFDPASMASLGYELPNAQSMACHEYLTLDNAFYETLLSRHHHDPIKSFSAFLTERIPDLETELHALLDSKKGIIDQIDTFISICNCPSLEHVARTLGKEVMHIEIGPLRAPMYRNTAYLDFAGVNGGTEASARYEKCQAEFDIKASLGDLHNYFLEVLPPAEAATHSAAGVVLQVEDNSNLIAYNHDFTNISLLSYVRQRYEKEDILVRAHPGSLFRLRDDVFTIDDSANSLAFINQCNEVFTINSSVGLEAILTGKKTTVLGDCSYAFINELAGASATVNAAAFYLFSYLVPFDLVFNQEYLKFRLGHPEEREIVGKHIEFYSADMPGSLSQAAHSLSSLINEAIS | – | 2
